Measurements from patent US20160319361, “OLIGONUCLEOTIDE PROBES AND USES THEREOF” (CARIS LIFE SCIENCES SWITZERLAND HOLDINGS GMBH, published 2016).

Molecular target: T1, EpCAM (UniProt P16422 P16422:24-265)
T1 sequence: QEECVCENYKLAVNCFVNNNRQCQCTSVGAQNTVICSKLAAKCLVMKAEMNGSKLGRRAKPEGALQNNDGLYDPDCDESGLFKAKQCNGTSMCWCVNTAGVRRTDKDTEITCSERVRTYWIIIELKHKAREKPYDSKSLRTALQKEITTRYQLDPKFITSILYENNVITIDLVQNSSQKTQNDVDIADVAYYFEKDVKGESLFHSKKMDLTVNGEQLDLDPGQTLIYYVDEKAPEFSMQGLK
Test: SPR; immobilized biotinylated aptamer, EpCAM analyte; HBS-EP+ buffer
Details: label: biotin via tail
Experimental: FIG. 5 illustrates results from a binding assay showing the binding affinity of an exemplary aptamer (Aptamer ID BTX176881 (SEQ ID NO: 3)) to the target EpCAM protein at various target concentrations. The aptamer to be tested is fixed to a substrate using a biotin tail and is incubated with various concentrations of target (125, 250 and 500 nM). The test is performed on a surface plasmon resonance machine (SPR). The SPR machine detects association and disassociation of the aptamer and the target. Target is applied until the association and disassociation events are equal, resulting in a plateau of the curve. The equations describing the curve at each concentration can then be used to calculate the KD of the aptamer (see Table 5).
The Biacore 200 control software is programmed with the following conditions: Solution: HBS-EP+ Buffer; Number of cycles: 3; Contact time: 120s; Flow rate: 30 μl/min; Dissociation time: 300s; Solution: Glycine-HCl pH 2.5; Contact time: 120s; Flow rate: 20 μl/min; Stabilization period: 0s. The binding affinities of these aptamers are then measured using the SPR assay above, or an alternate in vitro assay assessing the aptamer for a desired function.

Work on CCCGATTTTGGTACCGCGGGGATCCGCGTCTG (ssDNA) [BTX176881] yielded a Kd of 8.4 nM.
